In the data set the target is scFv(FRP5)-deltaETA-deltaGAL4 (synthetic construct (Saccharomyces …)). Kind of data set: EMSA; […] (printed ml); 50 mM Hepes pH 7.5, 50 mM KCl, 5 mM MgCl2, […], room temperature; […] (11.3). As to conditions: tags: N-terminal FLAG and His6, C-terminal KDEL signal; chain copies: 2 (stated; dimer per site, two dimers on tandem site); label: 5'-32P. In general terms: Mobility shift assays separate free from complexed probe on a gel.

B1: G4 oligonucleotide (two GAL4 motifs) (dsDNA)
DNA 1: AGCTTGGATCCGGAGGACAGTCCTCCGGAGACCGGAGGACAGTCCTCC
DNA 2: GATCGGAGGACTGTCCTCCGGTCTCCGGAGGACTGTCCTCCGGATCCA
As for B1, the binding result was “binds”.

Source of the values: US6498233, “Nucleic acid transfer system” (Winfried).
